Source: patent US20240084003A1 (SIMCERE ZAIMING PHARMACEUTICAL, published 2024)

How the values were obtained:
[1] = target: T1, murine CD22 protein (ACROBiosystems, SI2-M52Ha) (murine, UniProt P35329 22-708); test: ELISA, murine CD22-ECD-His coated
T1 construct: extracellular domain; also called murine CD22-ECD; murine CD22-ECD-His
T1 sequence (looked up): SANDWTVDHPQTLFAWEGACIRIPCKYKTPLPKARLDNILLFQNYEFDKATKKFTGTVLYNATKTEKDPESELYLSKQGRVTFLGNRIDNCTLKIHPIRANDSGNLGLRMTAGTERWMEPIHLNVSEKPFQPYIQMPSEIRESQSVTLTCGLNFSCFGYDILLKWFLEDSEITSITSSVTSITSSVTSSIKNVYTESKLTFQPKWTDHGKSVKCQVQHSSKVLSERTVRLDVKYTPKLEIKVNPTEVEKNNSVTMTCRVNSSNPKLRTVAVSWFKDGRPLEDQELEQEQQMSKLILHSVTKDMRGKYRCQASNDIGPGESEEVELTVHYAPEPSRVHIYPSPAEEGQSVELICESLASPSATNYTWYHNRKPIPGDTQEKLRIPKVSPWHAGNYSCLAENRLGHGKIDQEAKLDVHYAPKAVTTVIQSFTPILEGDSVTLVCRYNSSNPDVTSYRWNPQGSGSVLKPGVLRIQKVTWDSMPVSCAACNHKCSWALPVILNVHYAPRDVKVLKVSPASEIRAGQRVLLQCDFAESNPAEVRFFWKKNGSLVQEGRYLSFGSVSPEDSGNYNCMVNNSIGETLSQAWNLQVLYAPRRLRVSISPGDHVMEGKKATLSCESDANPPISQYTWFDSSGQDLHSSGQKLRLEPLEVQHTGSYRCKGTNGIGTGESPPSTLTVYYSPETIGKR
Description: (§1) In order to detect the binding activity of CD22 human-murine chimeric antibodies to CD22 protein, the purified human CD22-ECD-His protein obtained in Example 2 was diluted with PBS to a final concentration of 2 μg/mL, and then added to 96-well ELISA plate at 100 μl/well. The plate was sealed with plastic film and incubated overnight at 4° C., the plate was washed 2 times with PBS the next day, and then a blocking solution [PBS+2% (w/w) BSA] was added for blocking at room temperature for 2 hours. […] After incubation at 37° C. for 2 hours, the plate was washed 3 times with PBS. HRP (horseradish peroxidase)-labeled secondary antibody (purchased from Sigma, catalog number: A0170) was added, and incubated at 37° C. for 2 hours, and the plate was washed 5 times with PBS. TMB substrate was added at 50 μl/well, and incubated at room temperature for 30 minutes, then a stop solution (1.0 N HCl) was added at 50 μl/well.
In order to detect the species cross-binding activity of the chimeric antibodies, an ELISA plate was coated with commercial murine CD22 protein (ACROBiosystems, catalog number: SI2-M52Ha) and monkey CD22 protein (ACROBiosystems, catalog number: SI2-R52Ha), respectively, and the ELISA detection was performed according to the method in Example 5.1.

[2] = target: T2, human CD22-ECD-His protein (human, UniProt P20273 20-687); test: ELISA, Ab 0.01 nM
T2 construct: Made in house in HEK293E; also called hCD22-ECD-His; recombinant human CD22-ECD His protein; not shown: His tag
T2 sequence: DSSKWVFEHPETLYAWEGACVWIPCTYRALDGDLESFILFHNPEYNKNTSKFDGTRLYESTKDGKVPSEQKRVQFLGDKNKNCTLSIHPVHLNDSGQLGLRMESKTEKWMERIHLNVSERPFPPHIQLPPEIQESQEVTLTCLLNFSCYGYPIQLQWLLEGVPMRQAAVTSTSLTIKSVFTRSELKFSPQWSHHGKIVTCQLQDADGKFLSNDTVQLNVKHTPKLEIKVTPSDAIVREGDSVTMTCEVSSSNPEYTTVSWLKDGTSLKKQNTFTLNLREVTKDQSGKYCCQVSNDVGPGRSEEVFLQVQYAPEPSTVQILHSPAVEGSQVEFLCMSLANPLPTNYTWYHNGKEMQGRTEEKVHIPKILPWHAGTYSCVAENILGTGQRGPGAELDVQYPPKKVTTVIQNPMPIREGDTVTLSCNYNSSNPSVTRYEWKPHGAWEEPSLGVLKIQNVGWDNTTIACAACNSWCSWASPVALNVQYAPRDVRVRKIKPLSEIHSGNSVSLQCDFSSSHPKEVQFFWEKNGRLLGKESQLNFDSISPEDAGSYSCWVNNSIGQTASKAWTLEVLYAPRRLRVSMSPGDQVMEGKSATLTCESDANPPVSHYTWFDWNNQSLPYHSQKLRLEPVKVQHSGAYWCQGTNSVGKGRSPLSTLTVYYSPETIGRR
Description: as §1

[3] = target: T2, human CD22-ECD-His protein; test: ELISA, human CD22-ECD-His coated
Description: as §1

[4] = target: T2, human CD22-ECD-His protein; test: ELISA, Ab 0.00001 nM
Description: as §1

[5] = target: T2, human CD22-ECD-His protein; test: ELISA, Ab 100.00 nM
Description: as §1

[6] = target: T2, human CD22-ECD-His protein; test: ELISA, Ab 0.001 nM
Description: as §1

[7] = target: T2, human CD22-ECD-His protein; test: ELISA, Ab 0.0001 nM
Description: as §1

[8] = target: T2, human CD22-ECD-His protein; test: ELISA, Ab 0.10 nM
Description: as §1

[9] = target: T2, human CD22-ECD-His protein; test: ELISA, Ab 10.00 nM
Description: as §1

human CD22 domain5-7-His = target: T3, human CD22 domain5-7-His (human, UniProt P20273 414-687); test: ELISA, human CD22 domain5-7-His coated
T3 construct: also called hCD22 domain5-7-His; not shown: His tag
T3 sequence: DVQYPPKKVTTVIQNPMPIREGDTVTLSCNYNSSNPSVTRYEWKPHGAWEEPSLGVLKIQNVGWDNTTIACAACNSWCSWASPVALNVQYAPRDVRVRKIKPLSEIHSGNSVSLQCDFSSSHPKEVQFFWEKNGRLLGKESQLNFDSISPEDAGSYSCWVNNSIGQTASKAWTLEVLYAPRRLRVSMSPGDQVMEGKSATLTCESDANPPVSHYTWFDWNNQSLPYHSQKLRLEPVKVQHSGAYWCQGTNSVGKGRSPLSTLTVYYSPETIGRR

Row | Binder | binding result [1] | OD450 [2] | EC50 (read off the curve) [3] | OD450 [4] | OD450 [5] | OD450 [6] | OD450 [7] | OD450 [8] | OD450 [9] | binding result (human CD22 domain5-7-His)
1 | F1.62.10 (antibody, human IgG1, kappa, V domains shown, Human-murine chimeric IgG1, kappa) VH: QVQLQQSGPELVKPGASVKISCKASGYEFSSIWMNWVKQRPGEGLEWIGRIFPGDGEINYNEKFKGKATLTADRSSTTAYMQLSSLTSEDSAVYFCAGWRIYYGTYGAMDYWGQGTSVTVSS VL: DIQMTQITSSLSASLGDRVTISCRASQDIGNYLNWYQQKPDGTVKLLIYYTSRLHSGVPSRFSGSGSRTDYSLTISNLQQEDIATYFCQQGNTLPWTFGGGTKLEIKR | no binding (tested: 100 nM) | 2.16 OD450 | ~0.02 nM | 0.24 OD450 | 2.93 OD450 | 1.07 OD450 | 0.37 OD450 | 2.79 OD450 | 2.67 OD450 | no binding (tested: 100 nM)
2 | F1.161.7 (antibody, human IgG1, kappa, V domains shown, Human-murine chimeric IgG1, kappa) VH: QVQLQQPGAELVKPGASVKMSCKASGYTFTSYWISWVKQRPGQGLEWIGDIYPGTGSSNYNEKFKSKATLTVDTSSSTAYMQLSSLTSEDSAVYYCARLKFEGIGYWGQGTTLTVSS VL: QIVLTQSPAIMSASLGEEITLTCSASSSVSYMHWFQQKSGTSPKLLIYSISNLASGVPSRFSGSGSGTFYSLTISSVEAEDAADYYCHQWSSYPWTFGGGTKLEIKR | no binding (tested: 100 nM) | 2.34 OD450 | ~0.02 nM | 0.25 OD450 | 2.97 OD450 | 1.22 OD450 | 0.43 OD450 | 2.61 OD450 | 2.63 OD450 | no binding (tested: 100 nM)
3 | F2.121.9 (antibody, human IgG1, lambda, V domains shown, Human-murine chimeric IgG1, lambda) VH: EVQLVESGGGLVKPGGSLKLSCAASGFTFSDYVMSWIRQTPEKRLEWVATISDAGSYTFYPDNLKGRFTISRDNAKNNLYLQMNHLTSEDTAFYYCAIIYFGNYGGYWGQGTLVTVSV VL: QAVVTQESALTTSPGGTVVLTCRSNTGAVTTSNYANWVQEKPDHLFTGLIGGTSNRAPGVPVRFSGSLIGDKAALTITGAQTEDDAMYFCALWYSTHWVFGGGTKLTVLG | no binding (tested: 100 nM) | 1.6 OD450 | ~0.03 nM | 0.23 OD450 | 2.11 OD450 | 0.69 OD450 | 0.33 OD450 | 1.84 OD450 | 1.92 OD450 | no binding (tested: 100 nM)
